Like-named read-outs stand apart in the source and are kept apart here. Where a SMILES comes first, the peptide text is derived from it. Where no end group is shown, it is not given here. The star is where a group is joined. 6FAM = O=C1OC2(c3ccc(O)cc3Oc3cc(O)ccc32)c2cc(C(=O)*)ccc21
Legend:
[1] = molecular target: T1, RecG (WT) (Escherichia coli, UniProt P24230); experiment: Fluorescence anisotropy binding of 6-FAM-labelled SSB peptides to wildtype RecG; parameters: species or system E. coli
T1 construct: RecG was expressed in STL2669/pT7pol26 (a gift from Dr Susan Lovett, Brandeis University) with overexpression plasmid pEAW111; made in house; host or cells: E. coli STL2669/pT7pol26
Protocol: SSB peptides (sequences listed in Figure 2) were designed with an N-terminal tryptophan residue for quantification and N-terminal 6-FAM label (Genscript). RecG was incubated with 0.2 M potassium glutamate, 1 mM DTT, 0.1 μg/ml BSA, 1 × RecA buffer (25 mM Tris-acetate, pH 7.6, 5% w/v glycerol, 3 mM potassium glutamate, 10 mM magnesium acetate, 1 mM DTT), and 10 nM labeled peptide at room temperature for 30 min. Fluorescence polarization (FP) values were measured at 25°C using a Beacon 2000 Fluorescence Polarization System. Polarization values were normalized to the FP value measured at 0 nM RecG. Normalized FP was converted to normalized anisotropy. Experiments were performed in triplicate, and the data were fit to a one site binding model (, where X is ligand concentration, Y is normalized anisotropy, Bmax is the maximum anisotropy, and KD is the dissociation constant) using GraphPad Prism Software.
Figure 2. RecG binds directly and specifically to the SSB-Ct. (A) Fluorescence anisotropy binding isotherms for RecG binding to SSB-Ct (black), SSB113 (violet), SSBΔF (blue), or SSB IDL (green) peptides. Peptide sequences are listed in parentheses with * representing an N-terminal 6-FAM label. Anisotropy values are normalized to the reading at 0 μM RecG. […] (B–E) ITC analysis of RecG/SSB binding. Thermograms (top) and binding isotherms (bottom) of titrations of (B) full-length SSB, (C) SSB-Ct peptide, (D) SSBΔF or (E) SSBΔF peptide into RecG solutions.
Two models explaining how RecG interacts with SSB have been proposed - RecG could interact with the SSB-Ct ([29]) or RecG could interact with the IDL ([48],[49]). To begin testing each model, we used an equilibrium fluorescence anisotropy assay to measure RecG binding to fluorescently labeled SSB-Ct or IDL peptides (Figure 2). Titration of RecG with the SSB-Ct peptide led to an increase in fluorescence anisotropy, which occurs when protein binding slows the tumbling rate of a labeled peptide ([90]). […] KD values in the low micromolar range are typical for SSB/SIP complexes ([10],[12–14],[19],[23]). […]

[2] = tested on: SSB-interacting proteins (SIPs); details: SSB113; cited from earlier work
Source text: Most SSB-interacting proteins (SIPs) studied to date appear to share a conserved mode of SSB recognition in which they dock onto the SSB-Ct. Several SIPs have been co-crystalized with SSB-Ct peptides and their SSB-binding pockets have been validated in biochemical and/or genetic studies ([10],[12],[19],[20],[35]). SSB-Ct binding pockets have also been successfully predicted through computational methods ([36–39]). […] However, structural data ([31],[36],[108]) and predictions ([80]) reveal that the IDL is unstructured, and the length of IDLs across bacterial species varies greatly ([41]). […] Similarly, SSB fluorescent fusion proteins where GFP ...

[3] = molecular target: T2, RecG DNA helicase, wildtype (E. coli, UniProt P24230 1-693); experiment: ITC; SSB proteins or unlabeled peptides injected into RecG in the cell; 20 mM Tris-HCl pH 8.0, 150 mM NaCl, 10% glycerol, 1 mM EDTA, 1 mM β-mercaptoethanol; 25°C; one-site model; concentrations as monomers; details: both partners purified
T2 construct: RecG DNA helicase, E. coli, expressed from overexpression plasmid pEAW111; No tag is mentioned; also called WT RecG; source: E. coli STL2669/pT7pol26 with pEAW111, purified (ammonium sulfate, DEAE, Source 15Q, Source 15S)
T2 sequence (looked up): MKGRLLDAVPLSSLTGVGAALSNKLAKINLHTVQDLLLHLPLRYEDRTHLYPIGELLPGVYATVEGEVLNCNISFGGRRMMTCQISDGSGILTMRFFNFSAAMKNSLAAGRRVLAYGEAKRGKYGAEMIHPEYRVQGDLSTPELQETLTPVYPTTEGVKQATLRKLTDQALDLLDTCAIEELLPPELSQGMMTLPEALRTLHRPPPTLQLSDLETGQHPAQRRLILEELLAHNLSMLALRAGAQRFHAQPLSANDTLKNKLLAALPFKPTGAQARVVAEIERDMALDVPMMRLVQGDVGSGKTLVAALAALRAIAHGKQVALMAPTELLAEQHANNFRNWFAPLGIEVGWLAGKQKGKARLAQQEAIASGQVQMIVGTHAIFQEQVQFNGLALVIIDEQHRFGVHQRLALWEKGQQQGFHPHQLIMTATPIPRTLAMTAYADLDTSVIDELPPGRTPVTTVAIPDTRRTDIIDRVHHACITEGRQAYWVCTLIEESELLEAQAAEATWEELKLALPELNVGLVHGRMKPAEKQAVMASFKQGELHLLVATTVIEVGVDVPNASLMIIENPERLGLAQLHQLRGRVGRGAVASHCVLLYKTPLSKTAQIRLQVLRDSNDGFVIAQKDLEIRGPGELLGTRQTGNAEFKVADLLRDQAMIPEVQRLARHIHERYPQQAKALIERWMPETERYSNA

[4] = molecular target: ΦX174 RF I DNA; experiment: DNA-dependent ATP hydrolysis assay (coupled spectrophotometric) of RecG proteins; type: biochemical; details: 150 nM RecG, 3 mM ATP, 37°C, pH 7.6, triplicate
Protocol: ATPase rates for wildtype and variant RecG proteins were determined using a coupled spectrophotometric assay ([86]). ATP hydrolysis reactions were conducted with 150 nM RecG in 1 × RecA buffer, supplemented with 1 mM DTT, 2.2 mM phosphor(enol)pyruvate, 10 units/ml pyruvate kinase, 10 units/ml lactate dehydrogenase, 2 mM NADH, and 3 mM ATP with varying concentrations of ΦX174 RF I (New England Biolabs) DNA at 37°C. DNA concentrations are represented in μM nucleotides (nt). A380 nm measured the conversion of NADH into NAD^+. Measurements were taken every 20–40 s on a Cary UV-Vis spectrophotometer. ATP hydrolysis rates were calculated by dividing the slope of A380 nm measurements over time over the linear region by ε380 nm = 1.21 mM^−1 cm^−1 for NADH and the cell path length (1 cm).
To more rigorously and quantitatively test the RecG HD2/SSB-Ct binding model, a RecG variant in which one of the putative SSB-binding residues is altered (RecG R474E) was purified and tested for binding to the SSB-Ct peptide and to full-length SSB in vitro. This variant was chosen because of the predicted interaction of the R474 side chain with the alpha-carboxyl group of SSB-Ct C-terminal Phe (Figure 3A). Analogous interactions have proven to be essential points of contact in other SIPs ([10],[19]). […] ATPase activity of RecG R474E was indistinguishable from that of wildtype RecG, with values for both maximal ATPase rates and the DNA concentrations required for 50% stimulation (KDNA) within error between the two proteins (Figure 4B and Table 2). Thus, we concluded that the RecG R474E variant was properly folded. To further examine the effect of the R474E sequence change, we also used ITC to measure RecG R474E binding to either the SSB-Ct or to full-length SSB. Binding was not detected in either titration (Figure 4C).
Figure 4.
We first measured binding to the SSB-Ct. […] RecG R95A binding to the SSB-Ct was expected since our experiments had shown that the peptide bound at a site in the RecG HD2 domain. […] This difference could be due to compromised DNA binding in the R95A variant. Arg95 is located on the DNA binding surface of the RecG wedge domain ([74]), and changing adjacent residues Phe96 or Phe97 to Ala results in drastic reductions in DNA binding and unwinding activity ([91]).

[5] = tested on: SSB; details: S. cerevisiae pJ69-4a; Gal4 BD-RecG (variant) with Gal4 AD-SSB; SD His- and Ade-deficient plates, 30°C, 4–5 days
Protocol: SSB, RecG or RecG variants were N-terminally fused to the DNA binding domain (pGBD) or activation domain (pGAD) of the Gal4 transcription factor. Resulting plasmids (Supplementary Table S3) were transformed ([84]) in pairs into Saccharomyces cerevisiae strain pJ69-4a ([85]) and selected for on synthetic dextrose (SD) Leu- and Trp-deficient plates. Transformants were inoculated into SD Leu- and Trp-deficient liquid medium and grown at 30°C overnight rotating. Saturated overnight cultures were diluted to an OD600 nm of 1.0 in 2% glucose and serially diluted 10-fold in 2% glucose. Dilutions were spotted (10 μl) onto SD His- and Ade-deficient plates and grown at 30°C for 4–5 days. Plates were imaged on a Fotodyne gel doc. Site-directed mutagenesis of RecG in pGBD was performed by in vivo assembly mutagenesis ([78]) of pEAW1156.
A fourth charge-reversal variant of R484 was also tested as a control to determine whether an electrostatic change that is near, but not in, the putative SSB binding site would alter RecG binding to SSB. A yeast two-hybrid assay was used as an initial method to screen several RecG variants for interaction with SSB. In the two-hybrid assay, yeast were transformed with plasmids encoding SSB and RecG fused to the Gal4 activation and binding domains, respectively, and the RecG/SSB interaction was assessed by selecting for growth on selective medium plates. […]

[6] = tested on: SSB; details: cited from earlier work
Source text: In contra ... || To directly test whether the proposed RecG wedge domain IDL binding site is important for interaction with SSB, we purified a RecG R95A variant and measured its activity in vitro. […] We first measured binding to the SSB-Ct.

## H-WMDFDDDIP [SSBΔF peptide]
[1]; read-out: FP K D, WT RecG, fluorescence anisotropy, 10 nM N-terminal 6-FAM peptide, 0.2 M potassium glutamate, 25 mM Tris-acetate pH 7.6, 10 mM magnesium acetate, 30 min at room temperature, read at 25°C, one site fit, triplicate
  Kd: > 30 µM

## SSB113 protein: SSB with a Ser for the penultimate Pro of the SSB-Ct (ssb-113 mutation)
[2]
  affinity for SIPs, in words: greatly reduced affinity for SIPs

## CC[C@H](C)[C@H](NC(=O)[C@H](CC(=O)O)NC(=O)[C@H](CC(=O)O)NC(=O)[C@H](CC(=O)O)NC(=O)[C@H](Cc1ccccc1)NC(=O)[C@H](CC(=O)O)NC(=O)[C@H](CCSC)NC(=O)[C@H](Cc1c[nH]c2ccccc12)NC(=O)c1ccc2c(c1)C1(OC2=O)c2ccc(O)cc2Oc2cc(O)ccc21)C(=O)N[C@@H](CO)C(=O)N[C@@H](Cc1ccccc1)C(=O)O [SSB113 peptide] (6FAM-WMDFDDDISF-OH)
[1]
  Kd: 23 ± 3.1 µM

B1: SSB-Ct peptide, unlabeled (peptide)
peptide: WMDFDDDIPF
notes: N-terminal tryptophan residue added for quantification; C-terminal tip of SSB, E. coli; source: synthetic peptide (Genscript)
[3]
  Kd: 3.9 ± 0.8 µM
  dH: -4 ± 0.5 kcal/mol
  stoichiometry N: 0.92 ± 0.08

B2: RecG R474E: RecG Arg474Glu charge-reversal variant, HD2 domain (protein)
chain: MKGRLLDAVPLSSLTGVGAALSNKLAKINLHTVQDLLLHLPLRYEDRTHLYPIGELLPGVYATVEGEVLNCNISFGGRRMMTCQISDGSGILTMRFFNFSAAMKNSLAAGRRVLAYGEAKRGKYGAEMIHPEYRVQGDLSTPELQETLTPVYPTTEGVKQATLRKLTDQALDLLDTCAIEELLPPELSQGMMTLPEALRTLHRPPPTLQLSDLETGQHPAQRRLILEELLAHNLSMLALRAGAQRFHAQPLSANDTLKNKLLAALPFKPTGAQARVVAEIERDMALDVPMMRLVQGDVGSGKTLVAALAALRAIAHGKQVALMAPTELLAEQHANNFRNWFAPLGIEVGWLAGKQKGKARLAQQEAIASGQVQMIVGTHAIFQEQVQFNGLALVIIDEQHRFGVHQRLALWEKGQQQGFHPHQLIMTATPIPRTLAMTAYADLDTSVIDELPPGRTPVTTVAIPDTRRTDIIDEVHHACITEGRQAYWVCTLIEESELLEAQAAEATWEELKLALPELNVGLVHGRMKPAEKQAVMASFKQGELHLLVATTVIEVGVDVPNASLMIIENPERLGLAQLHQLRGRVGRGAVASHCVLLYKTPLSKTAQIRLQVLRDSNDGFVIAQKDLEIRGPGELLGTRQTGNAEFKVADLLRDQAMIPEVQRLARHIHERYPQQAKALIERWMPETERYSNA
modifications: left off: Gal4 DNA-binding domain, N-terminal, kept
[4]
  K DNA (DNA concentration required for 50% stimulation of ATPase): 39.9 ± 2.9 μM nt
  V max of ATP hydrolysis: 363 ± 13 µM/min
[5]
  yeast two-hybrid growth on selective medium: failed to grow

B3: RecG R95A: RecG wedge domain variant (protein)
chain: MKGRLLDAVPLSSLTGVGAALSNKLAKINLHTVQDLLLHLPLRYEDRTHLYPIGELLPGVYATVEGEVLNCNISFGGRRMMTCQISDGSGILTMAFFNFSAAMKNSLAAGRRVLAYGEAKRGKYGAEMIHPEYRVQGDLSTPELQETLTPVYPTTEGVKQATLRKLTDQALDLLDTCAIEELLPPELSQGMMTLPEALRTLHRPPPTLQLSDLETGQHPAQRRLILEELLAHNLSMLALRAGAQRFHAQPLSANDTLKNKLLAALPFKPTGAQARVVAEIERDMALDVPMMRLVQGDVGSGKTLVAALAALRAIAHGKQVALMAPTELLAEQHANNFRNWFAPLGIEVGWLAGKQKGKARLAQQEAIASGQVQMIVGTHAIFQEQVQFNGLALVIIDEQHRFGVHQRLALWEKGQQQGFHPHQLIMTATPIPRTLAMTAYADLDTSVIDELPPGRTPVTTVAIPDTRRTDIIDRVHHACITEGRQAYWVCTLIEESELLEAQAAEATWEELKLALPELNVGLVHGRMKPAEKQAVMASFKQGELHLLVATTVIEVGVDVPNASLMIIENPERLGLAQLHQLRGRVGRGAVASHCVLLYKTPLSKTAQIRLQVLRDSNDGFVIAQKDLEIRGPGELLGTRQTGNAEFKVADLLRDQAMIPEVQRLARHIHERYPQQAKALIERWMPETERYSNA
modifications: left off: Gal4 DNA-binding domain, N-terminal, kept
notes: RecG wedge domain variant
[4]
  K DNA (DNA concentration required for 50% stimulation of ATPase): 18.5 ± 4.9 μM nt
  V max of ATP hydrolysis: 127 ± 11 µM/min
[5]
  yeast two-hybrid growth on selective medium: grew on the selective medium
[6]; previous study
  reduction in co-purification with SSB: 24 fold
[6]; prior results
  binding to SSB in co-purification assay, in words: severely reduced binding to SSB
